From publication PMC5758897 (Nucleic Acids Research, 2017) come the findings set out here.

In assay [1] the target is YEATS domain of Yaf9 (aa 8–171), wild type (S. cerevisiae) (UniProt P53930). Nature of the assay: other fluorescence titration.
The target in assay [2] is T1, YEATS domain of Yaf9 (WT, aa 8–171) (Saccharomyces cerevisiae, UniProt P53930).
T1 sequence (P53930 8-171): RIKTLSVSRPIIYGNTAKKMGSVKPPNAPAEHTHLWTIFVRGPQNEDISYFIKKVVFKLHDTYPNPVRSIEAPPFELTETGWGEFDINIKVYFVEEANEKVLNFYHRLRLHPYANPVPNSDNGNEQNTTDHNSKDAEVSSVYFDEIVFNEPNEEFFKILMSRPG
As to the kind of experiment: 1H,15N HSQC NMR titration, Yaf9 YEATS WT. The following applies: free acetyllysine (NMR) vs H3K27ac peptide. It is filed as binding.

The target in assay [3] is T2, E91G mutant of Yaf9-YEATS (aa 8–171) (S. cerevisiae, UniProt P53930 8-171, E91G).
T2 sequence (looked up): T1 sequence (P53930 8-171) with E84G
Nature of the assay: other fluorescence titration.

For assay [4], the target named is T3, AF9 YEATS domain (aa 1–138), wild type (human, UniProt P42568 1-138).
T3 sequence (looked up): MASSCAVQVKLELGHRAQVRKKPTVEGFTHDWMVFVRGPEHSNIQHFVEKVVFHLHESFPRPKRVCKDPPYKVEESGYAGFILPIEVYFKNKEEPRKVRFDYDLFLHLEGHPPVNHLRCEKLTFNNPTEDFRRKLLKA
Nature of the assay: other fluorescence titration.

The target in assay [5] is T4, YEATS domain of Taf14 (aa 1–137), wild type (yeast, UniProt P35189 1-137).
T4 sequence (looked up): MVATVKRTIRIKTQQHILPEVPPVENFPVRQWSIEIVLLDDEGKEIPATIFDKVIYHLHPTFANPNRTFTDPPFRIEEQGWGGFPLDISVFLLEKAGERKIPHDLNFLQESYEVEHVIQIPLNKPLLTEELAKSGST
Nature of the assay: other fluorescence titration.

Assay [6] has as its target T5, D104R mutant of Taf14-YEATS (aa 1–137) (yeast, UniProt P35189 1-137, D104R).
T5 sequence (looked up): T4 sequence (looked up) with D104R
Nature of the assay: other fluorescence titration.

Assay [7] concerns the target T6, G83E mutant of Taf14-YEATS (aa 1–137) (yeast, UniProt P35189 1-137, G83E).
T6 sequence (looked up): T4 sequence (looked up) with G83E
As to the kind of experiment: other fluorescence titration.

Where a chain is given by its changes, count along the chain named. Where no end group is shown, it is not given here.

Take “histone H3K27ac peptide (aa 21–31 of H3) (from UniProt P68431 22-32)”: the Kd in assay [1] was found to be 10 µM.

For `CC(=O)NCCCC[C@H](N)C(=O)O` [Kac, acetyllysine], the “binding of free acetyllysine weaker” value in assay [2] is listed as “over 200 fold”.

As to QTARK(Ac)STGG (peptide, UniProt P68431 6-14, looked up, also: biotinylated, site not given here) [histone H3K9ac peptide (aa 5–13 of H3)], the “fold increase in binding against WT Yaf9-YEATS” value in assay [3] is approximately 1.5 fold. For the same molecule, the binding result in assay [4], in assay [5] and in assay [6] was “binds” throughout. Also, the “fold decrease in binding against WT Taf14-YEATS” value in assay [7] is approximately 2 fold.
